Holding throughout (assay): sandwich ELISA; receptor ECD/Fc chimera captured on anti-Fc plates, biotin-labeled ligand titrated, streptavidin-HRP detection
Background: In an ELISA, binding on a coated surface is turned into a signal by an enzyme label.

Test [1] deals with T1, recombinant human EGFR/Fc chimera (receptor extracellular domain/Fc chimera) (human, UniProt P00533 25-645).
T1 construct: extracellular domain; Bought from R&D Systems; Captured on plates coated with anti-Fc antibody; also called HER/Fc chimera-EGFR; HER1; not shown: Fc part (and any linker) of the purchased R&D Systems chimera

Test [2] addresses T2, recombinant human HER3/Fc chimera (receptor extracellular domain/Fc chimera) (human, UniProt P21860 20-643).
T2 construct: extracellular domain; Bought from R&D Systems; Captured on plates coated with anti-Fc antibody; not shown: Fc part (and any linker) of the purchased R&D Systems chimera

Test [3] has as its target T3, recombinant human HER4/Fc chimera (receptor extracellular domain/Fc chimera) (human, UniProt Q15303 26-651).
T3 construct: extracellular domain; Bought from R&D Systems; Captured on plates coated with anti-Fc antibody; not shown: Fc part (and any linker) of the purchased R&D Systems chimera
T3 sequence (looked up): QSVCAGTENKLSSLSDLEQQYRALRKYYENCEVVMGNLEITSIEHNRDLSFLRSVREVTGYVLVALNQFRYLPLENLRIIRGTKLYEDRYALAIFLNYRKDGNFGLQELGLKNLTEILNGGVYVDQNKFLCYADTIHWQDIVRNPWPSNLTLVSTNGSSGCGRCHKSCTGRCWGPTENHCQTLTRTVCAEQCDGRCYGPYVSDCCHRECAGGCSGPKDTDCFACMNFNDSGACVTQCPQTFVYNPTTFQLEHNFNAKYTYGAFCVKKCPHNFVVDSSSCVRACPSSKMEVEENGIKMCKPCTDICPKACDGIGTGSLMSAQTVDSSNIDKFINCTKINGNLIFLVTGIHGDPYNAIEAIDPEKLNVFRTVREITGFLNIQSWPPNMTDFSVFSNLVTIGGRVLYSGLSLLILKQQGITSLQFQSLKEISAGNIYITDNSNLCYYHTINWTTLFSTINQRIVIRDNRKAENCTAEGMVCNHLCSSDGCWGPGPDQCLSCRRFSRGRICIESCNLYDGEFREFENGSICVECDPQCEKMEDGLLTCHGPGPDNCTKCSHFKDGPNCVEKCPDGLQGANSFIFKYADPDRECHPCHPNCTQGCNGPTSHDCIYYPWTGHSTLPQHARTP

As a reminder, the Kd is the constant that tells how readily two partners part at equilibrium.

T2 sequence (P21860 20-643, change not shown): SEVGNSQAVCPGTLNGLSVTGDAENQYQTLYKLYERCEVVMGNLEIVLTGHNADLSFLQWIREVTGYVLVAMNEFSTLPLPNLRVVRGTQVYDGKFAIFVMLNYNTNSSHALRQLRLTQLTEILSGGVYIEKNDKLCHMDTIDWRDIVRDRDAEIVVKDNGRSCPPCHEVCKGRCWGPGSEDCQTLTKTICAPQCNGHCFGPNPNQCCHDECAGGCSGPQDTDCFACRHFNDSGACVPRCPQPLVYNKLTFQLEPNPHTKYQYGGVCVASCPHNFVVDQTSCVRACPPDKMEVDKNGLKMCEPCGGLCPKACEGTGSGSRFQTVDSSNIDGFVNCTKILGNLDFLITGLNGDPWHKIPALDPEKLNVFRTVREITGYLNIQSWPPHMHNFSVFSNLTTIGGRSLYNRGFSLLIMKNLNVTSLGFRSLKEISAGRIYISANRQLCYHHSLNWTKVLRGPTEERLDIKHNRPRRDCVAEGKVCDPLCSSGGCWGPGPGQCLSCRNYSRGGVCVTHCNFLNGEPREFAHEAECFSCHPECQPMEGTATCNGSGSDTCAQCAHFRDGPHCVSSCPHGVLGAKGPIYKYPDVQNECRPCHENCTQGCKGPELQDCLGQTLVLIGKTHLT

B1: Pan-HER DNL B5-3M2 tagged with biotin (ligand)
chain: NSDSECPLSHDGYCLNDGVCMYTEAKDEYACNCVVGYIGERCQYYDLL
modifications: not fully specified; biotin label; paragraph 113 says derivatized at the N-terminus; paragraph 97 says B5-3M2 has two sites for biotinylation, the N terminus and K26
notes: Made in E. coli; also called tagged (biotinylated) DNL; EGF1-48 H16N, I23T, L26K, K28E, R45Y, K48L
In the case of B1, the values for the Kd in test [1], in test [2] and in test [3] were 5 nM, 6 nM and 4 nM, respectively.

The values above are taken from patent publication US20200369737A1 (published 2020).
